# Data as given in patent publication US20160075781A1 (IMMUNOGEN, published 2016).
# Target: T1, human folate receptor 1 (human, UniProt P15328 25-234)
# Assay: cell-based or functional assay
# T1 sequence (P15328 25-234 limits assumed): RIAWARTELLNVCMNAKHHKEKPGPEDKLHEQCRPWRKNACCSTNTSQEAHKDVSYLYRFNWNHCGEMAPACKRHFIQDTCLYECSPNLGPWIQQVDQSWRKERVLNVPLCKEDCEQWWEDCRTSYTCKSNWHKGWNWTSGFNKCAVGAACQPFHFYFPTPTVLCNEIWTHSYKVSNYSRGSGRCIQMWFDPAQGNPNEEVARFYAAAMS
row,Binder,"IC50, cytotoxic activity of the PEG4-mal-DM4 conjugate on KB cells, continuous exposure (WST-8 survival)"
1,"huMov19-PEG4-mal-DM4 (antibody, V domains shown, maytansinoid DM4 attached through the PEG4-mal linker; residues and chain not stated) VH: QVQLVQSGAEVVKPGASVKISCKASGYTFTGYFMNWVKQSPGQSLEWIGRIHPYDGDTFYNQKFQGKATLTVDKSSNTAHMELLSLTSEDFAVYYCTRYDGSRAMDYWGQGTTVTVSS VL: DIVLTQSPLSLAVSLGQPAIISCKASQSVSFAGTSLMHWYHQKPGQQPRLLIYRASNLEAGVPDRFSGSGSKTDFTLNISPVEAEDAATYYCQQSREYPYTFGGGTKLEIKR",150 pM
2,"muFR1-21 PEG4-mal-DM4 conjugate (antibody, mouse IgG2b, kappa, V domains shown, DM4 linked through PEG4-mal; sites not given) VH: EVKLVESGGDLVKPGGSLKLSCAASGFTFSSYGMSWVRQTPDKRLECVATISSGGSYTYYPDGVKGRFTISRDNAKNTLYLQMSSLKSEDTAMYYCARDGEGGLYAMDYWGQGTSVTVSS VL: DIQMTQSSSYLSVSLGGRVTITCKASDHINNWLAWYQQKPGNAPRLLISGATSLETGVPSRFSGSGSGKDYTLSISSLQTEDVATYYCQQYWSTPFTFGSGTKLEIKR",100 pM
3,"huFR1-21-PEG4-mal-DM4 (antibody, human IgG1, kappa, V domains shown, maytansinoid DM4 attached through the PEG4-mal linker; residues and chain not stated) VH: EVQLVESGGDVVKPGGSLKLSCAASGFTFSSYGMSWVRQTPGKGLECVATISSGGSYTYYSPGFQGRFTISRDKSKNTLYLQMSSLKAEDTAMYYCARDGEGGLYAMDYWGQGTSVTVSS VL: DIQMTQSSSSLSVSVGGRVTITCKASDHINNWLAWYQQKPGKAPKLLISGATSLETGVPSRFSGSGSGKDYTLSISSLQPEDVATYYCQQYWSTPFTFGQGTKLEIKR",100 pM

# Target: T1, human folate receptor 1
# Assay: apparent affinity, flow cytometry on FOLR1-expressing cells ('as described above'; cell line not named in Example 19, SKOV3 in Example 13)
row,Kd,Binder
1,60 pM,"huMov19 (antibody, V domains shown, Resurfaced humanized Mov19, full IgG1/kappa; also called humanized Mov19) VH: QVQLVQSGAEVVKPGASVKISCKASGYTFTGYFMNWVKQSPGQSLEWIGRIHPYDGDTFYNQKFQGKATLTVDKSSNTAHMELLSLTSEDFAVYYCTRYDGSRAMDYWGQGTTVTVSS VL: DIVLTQSPLSLAVSLGQPAIISCKASQSVSFAGTSLMHWYHQKPGQQPRLLIYRASNLEAGVPDRFSGSGSKTDFTLNISPVEAEDAATYYCQQSREYPYTFGGGTKLEIKR"
2,140 pM,"huFR1-57 (antibody, human IgG1, kappa, V domains shown) VH: EVQLVESGGGLVQPGGSRRLSCAASGFTFSSFGMHWVRQAPGKGLEWVAYISSGSSTISYADSVKGRFTISRDNSKKTLLLQMTSLRAEDTAMYYCAREAYGSSMEYWGQGTLVTVSS VL: EIVLTQSPATLSVTPGDRVSLSCRASQNINNNLHWYQQKPGQSPRLLIKYVSQSVSGIPDRFSGSGSGTDFTLSISSVEPEDFGMYFCQQSNSWPHYTFGQGTKLEIKR"
3,150 pM,"huFR1-65 (antibody, human IgG1, kappa, V domains shown) VH: QVQLVQSGAEVAKPGASVKMSCKASGYTFTSYTMHWVKQRPGQGLAWIGYINPISGYTNYNQKFQGKATLTADKSSSTAYMQLNSLTSEDSAVYYCASGGAYGRKPMDYWGQGTSVTVSS VL: EIVMTQSPATMSTSPGDRVSVTCKASQNVGPNVAWYQQKPGQSPRALIYSASYRYSGVPARFTGSGSGTDFTLTISNMQSEDLAEYFCQQYNSYPYTFGQGTKLEIKR"

# Continued, binder first:
row,Binder,Kd
1,"huFR1-48 (antibody, human IgG1, kappa, V domains shown) VH: QVQLVQSGAEVAKPGASVKLSCKASGYTFTNYWMQWIKQRPGQGLEWIGAIYPGNGDSRYTQKFQGKATLTADKSSSTAYMQVSSLTSEDSAVYYCARRDGNYAAYWGQGTLVTVSA VL: DIQMTQSPSSLSVSVGERVTITCRASENIYSNLAWYQQKPGKSPKLLVYAATNLADGVPSRFSGSESGTDYSLKINSLQPEDFGSYYCQHFWASPYTFGQGTKLEIKR",130 pM
2,"huFR1-49 (antibody, human IgG1, kappa, V domains shown) VH: QVQLQQSGAVVAKPGASVKMSCKASGYTFTNYWMYWIKQRPGQGLELIGAIYPGNSDTTYNQKFQGKATLTAVTSANTVYMEVSSLTSEDSAVYYCTKRHDYGAMDYWGQGTSVTVSS VL: DIQMTQSPSSLSVSVGERVTITCRASENIYTNLAWYQQKPGKSPKLLVYTASNLADGVPSRFSGSGSGTDYSLKINSLQPEDFGTYYCQHFWVSPYTFGQGTKLEIKR",80 pM

# Target: T1, human folate receptor 1
# Assay: flow cytometry on FOLR1-expressing SKOV3 cells; apparent Kd from the fit of MFI against antibody concentration
# Procedure: Binding affinities of anti-FOLR1 antibodies and of their SPDB-DM4, PEG4Mal-DM4, SMCC-DM1, or anti-FOLR1-sulfo-SPDB-DM4 conjugates were assayed by Flow Cytometry. FOLR1-expressing SKOV3 cells were incubated with varying concentrations of anti-FOLR1 antibodies or their conjugates and processed as described above for flow cytometry analysis. Data analysis was performed using CellQuest Pro (BD Biosciences, San Diego, US) and for each sample the mean fluorescence intensity for FL1 (MFI) was exported and plotted against the antibody concentration in a semi-log plot. A dose-response curve was generated by non-linear regression and the value for the apparent equilibrium dissociation constant (Kd) of the test-samples for the binding to SKOV3 cells was calculated using GraphPad Prism v4 (GraphPad software, San Diego, Calif.) and presented in FIG. 5.
row,Binder,Kd
1,"huMov19 (antibody, V domains shown, Resurfaced humanized Mov19, full IgG1/kappa; also called humanized Mov19) VH: QVQLVQSGAEVVKPGASVKISCKASGYTFTGYFMNWVKQSPGQSLEWIGRIHPYDGDTFYNQKFQGKATLTVDKSSNTAHMELLSLTSEDFAVYYCTRYDGSRAMDYWGQGTTVTVSS VL: DIVLTQSPLSLAVSLGQPAIISCKASQSVSFAGTSLMHWYHQKPGQQPRLLIYRASNLEAGVPDRFSGSGSKTDFTLNISPVEAEDAATYYCQQSREYPYTFGGGTKLEIKR",70 pM
2,"muFR1-9 (antibody, V domains shown) VH: QVQLVESGGGLVQPGGSRKLSCAASGFTFSSFGMHWVRQAPEKGLEWVAYISSGSSTFYYADTVKGRFTISRDNPKNTLFLQMTSLRSEDTAMYYCAKELTGTFAYWGQGTLVTVSA VL: DIVLTQSPATLSVTPGDSVSLSCRASQSINNNLHWYQQKSHESPRLLIKYASQSISGIPSRFSGSGSGTDFTLSINSVETEDFGMYFCQQSNSWPQVTFGAGTKLELKR",130 pM
3,"muFR1-13 (antibody, V domains shown) VH: QVQLKESGPDLVAPSQSLSITCTVSGFSLSRYSVHWIRQPPGKGLEWLGMIWSGGNTDYNSVFKSRLNITKDNSKSQVFLKMNSLQTDDTAIYYCATFDGKVSWFAYWGQGTLVTVSA VL: SIVMTQTPKFLLVSTGDRFTITCKASQSVSNDVLWYQQKPGQSPKLLIYYAYNRYSGVPDRFTGSGYGTDFTFTITTVQSEDLAVYFCQQDHSSPFTFGSGTKLEIKR",660 pM
4,"muFR1-21 (antibody, mouse IgG2b, kappa, V domains shown, murine anti-FOLR1 antibody; also called murine FR1-21) VH: EVKLVESGGDLVKPGGSLKLSCAASGFTFSSYGMSWVRQTPDKRLECVATISSGGSYTYYPDGVKGRFTISRDNAKNTLYLQMSSLKSEDTAMYYCARDGEGGLYAMDYWGQGTSVTVSS VL: DIQMTQSSSYLSVSLGGRVTITCKASDHINNWLAWYQQKPGNAPRLLISGATSLETGVPSRFSGSGSGKDYTLSISSLQTEDVATYYCQQYWSTPFTFGSGTKLEIKR",70 pM
5,"huFR1-21 (antibody, human IgG1, kappa, V domains shown, unconjugated humanized FR1-21; also called humanized FR1-21) VH: EVQLVESGGDVVKPGGSLKLSCAASGFTFSSYGMSWVRQTPGKGLECVATISSGGSYTYYSPGFQGRFTISRDKSKNTLYLQMSSLKAEDTAMYYCARDGEGGLYAMDYWGQGTSVTVSS VL: DIQMTQSSSSLSVSVGGRVTITCKASDHINNWLAWYQQKPGKAPKLLISGATSLETGVPSRFSGSGSGKDYTLSISSLQPEDVATYYCQQYWSTPFTFGQGTKLEIKR",70 pM
